Data as given in US12139520B2 (priority 2020, dated 2024).
Numbered stars: 1 amine (or outer) side, 2 acyl side, 3 side chain; on linkers, the order of the positions; unused ones are H or OH. Bridge positions count the residues as written; N and C are the ends. Square brackets hold non-standard residues; d marks the D form. Side chains are listed from the residue outwards. Ends that are not written are not given here. * marks the point of attachment. C20 diacid = O=C(O)CCCCCCCCCCCCCCCCCCC(=O)*; γGlu = O=C(O)[C@H](CCC(=O)[*:2])N[*:1]; Hyp = O=C(O)[C@@H]1C[C@@H](O)CN1; NMeI = CC[C@H](C)[C@H](NC)C(=O)O; Aad = N[C@@H](CCCC(=O)O)C(=O)O; AEEA = NCCOCCOCC(=O)O; Sar = CNCC(=O)O

T1: hAMY3R (human, UniProt P30988)
T1 sequence 1: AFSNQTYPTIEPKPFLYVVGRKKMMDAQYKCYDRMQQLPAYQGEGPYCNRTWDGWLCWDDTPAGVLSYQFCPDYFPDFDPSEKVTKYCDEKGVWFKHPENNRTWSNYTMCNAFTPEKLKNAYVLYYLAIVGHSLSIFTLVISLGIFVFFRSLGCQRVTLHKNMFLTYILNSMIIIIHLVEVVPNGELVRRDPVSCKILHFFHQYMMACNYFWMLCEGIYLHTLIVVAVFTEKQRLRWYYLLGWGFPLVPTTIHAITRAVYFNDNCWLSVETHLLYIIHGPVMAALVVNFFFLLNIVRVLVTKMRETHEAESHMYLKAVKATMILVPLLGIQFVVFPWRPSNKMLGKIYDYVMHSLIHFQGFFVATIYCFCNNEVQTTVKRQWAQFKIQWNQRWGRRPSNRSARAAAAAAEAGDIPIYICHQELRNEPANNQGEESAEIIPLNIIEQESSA
T1 sequence 2: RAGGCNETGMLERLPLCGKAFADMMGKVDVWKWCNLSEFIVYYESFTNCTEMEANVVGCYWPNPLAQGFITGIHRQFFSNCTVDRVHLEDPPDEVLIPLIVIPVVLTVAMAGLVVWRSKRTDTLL


Legend:
hAMY3R = target: T1, hAMY3R; test: cell-based or functional assay
hAM1R = hAM1R (human, UniProt Q16602); test: cell-based or functional assay

Binder | hAMY3R EC50 (cAMP) (hAMY3R) [nM] | hAM1R EC50 (cAMP) (hAM1R) [nM]
{C20 diacid-γGlu}-RCGTATCATERLA[Aad]FLQRSSF[Sar]A[NMeI]LSSTEVGSNT[Hyp]-NH2 (disulfide 2-7 (inferred); not fully specified; ends not checked) [SEQ ID NO: 76] | 0.014 | > 5000
{C20 diacid-γGlu}-KCNTATCTVQRLAHQIYQFTNKDKDNVAPPTNVGSNG[Hyp]-NH2 (disulfide 2-7 (inferred); not fully specified; ends not checked) [SEQ ID NO: 82] | 0.015 | 612
GCRFGTCTVQRLAHQIYQFTDKDKDNVAPRTNIGPNG[Hyp]-NH2 (disulfide 2-7 (inferred); ends not checked) [SEQ ID NO: 81] | 0.015 | 138
RCNASTCTVNRLADQITQFSNKDKAQVSPPTEVGPNS[Hyp]-NH2 (disulfide 2-7 (inferred); ends not checked) [SEQ ID NO: 9] | 0.006 | > 5000
KCQTATCTVQRLAEQIYQFTDKDKDNVAPPTNVGSNGX (not fully specified; C20DA-yGlu at N-terminal; Hyp at X38) [SEQ ID NO: 72] | 0.013 | > 5000
{C20 diacid-γGlu}-KCNTATCTVQRLAHQIVQFTDKDKDNVAPPTNVGSNG[Hyp]-NH2 (disulfide 2-7 (inferred); not fully specified; ends not checked) [SEQ ID NO: 85] | 0.015 | > 5000
GCRTGTCTVQRLAHQIYQFTDKDKDNVAPRTNVGPNGY [SEQ ID NO: 84] | 0.015 | 2980
{C20 diacid-γGlu}-RCQTATCATERLAHFLQRSSF[Sar]A[NMeI]LSSTEVGSNT[Hyp]-NH2 (disulfide 2-7 (inferred); not fully specified; ends not checked) [SEQ ID NO: 80] | 0.015 | 44.3
{C20 diacid-γGlu}-KCNTATCTVQRLAHQIYQFTDKDKDNVAPPTNVGSNG[Hyp]-NH2 (disulfide 2-7 (inferred); not fully specified; ends not checked) [SEQ ID NO: 77] | 0.014 | > 5000
{C20 diacid-γGlu}-KCNTATCTVQRLAHQIAQYTDKDKDNVAPPTNVGSNG[Hyp]-NH2 (disulfide 2-7 (inferred); not fully specified; ends not checked) [SEQ ID NO: 71] | 0.013 | > 5000
{C20 diacid-γGlu}-KCNTATCTVQRLAHQIAQFSDKDKDNVAPPTNVGSNG[Hyp]-NH2 (disulfide 2-7 (inferred); not fully specified; ends not checked) [SEQ ID NO: 79] | 0.014 | > 5000
KCNTATCTVQRLAK([AEEA-AEEA-γGlu-C20 diacid])QIYQFTDKDKDNVAPPTNVGSNG[Hyp]-NH2 (disulfide 2-7 (inferred); not fully specified; ends not checked) [SEQ ID NO: 74] | 0.013 | > 5000
{C20 diacid-γGlu}-KCNTATCTVQRLAHQIYQFADKDKDNVAPPTNVGSNG[Hyp]-NH2 (disulfide 2-7 (inferred); not fully specified; ends not checked) [SEQ ID NO: 83] | 0.015 | 815
KCNTATCTVQRLAHQIYQFTDKDKDNVAPPTNVGSNG[Hyp]-NH2 (disulfide 2-7 (inferred); ends not checked) [SEQ ID NO: 75] | 0.013 | > 5000
GCRFGTCTVQRLAHQIYQFTDKDKDNVAPRTNVGPQG[Hyp]-NH2 (disulfide 2-7 (inferred); ends not checked) [SEQ ID NO: 70] | 0.013 | 2980
KCNTSTCTVARLADQITQFSNKDKAQVSPPTEVGPNS[Hyp]-NH2 (disulfide 2-7 (inferred); ends not checked) [SEQ ID NO: 8] | 0.006 | > 5000
{C20 diacid-γGlu}-KCNTATCTVQRLAEQIAQFTDKDKDNVAPPTNVGSNG[Hyp]-NH2 (disulfide 2-7 (inferred); not fully specified; ends not checked) [SEQ ID NO: 78] | 0.014 | > 5000
{C20 diacid-γGlu}-KCNTATCTVQRLAEQIYQFTDKDKDNVAPPTQVGSNG[Hyp]-NH2 (disulfide 2-7 (inferred); not fully specified; ends not checked) [SEQ ID NO: 73] | 0.013 | > 5000

Next, values leading:

hAMY3R EC50 (cAMP) (hAMY3R) [nM] | hAM1R EC50 (cAMP) (hAM1R) [nM] | Binder
0.016 | 58.5 | GCRFGTCTVQRLAHQIYQFTDKDKDNVAPRTNVGPNG[Hyp]-NH2 (disulfide 2-7 (inferred); ends not checked) [SEQ ID NO: 90]
0.015 | > 5000 | KCNTATCTVQRLAEQIYQFK([AEEA-AEEA-γGlu-C20 diacid])DKDKDNVAPPTNVGSNG[Hyp]-NH2 (disulfide 2-7 (inferred); not fully specified; ends not checked) [SEQ ID NO: 89]
0.016 | > 5000 | {C20 diacid-γGlu}-KCNTATCTVQRLAHQIAQFYDKDKDNVAPPTNVGSNG[Hyp]-NH2 (disulfide 2-7 (inferred); not fully specified; ends not checked) [SEQ ID NO: 94]
0.015 | > 5000 | {C20 diacid-γGlu}-KCNTATCTVARLAHQINQFTDKDKDNVAPPTNVGSNG[Hyp]-NH2 (disulfide 2-7 (inferred); not fully specified; ends not checked) [SEQ ID NO: 86]
0.016 | 840 | {C20 diacid-γGlu}-KCNTATCTVQRLAHQIYQFTDKNKDNVAPPTNVGSNG[Hyp]-NH2 (disulfide 2-7 (inferred); not fully specified; ends not checked) [SEQ ID NO: 91]
0.015 | > 5000 | {C20 diacid-γGlu}-KCNTATCTVQRLAHQIAQFTDKNKDNVAPPTNVGSNG[Hyp]-NH2 (disulfide 2-7 (inferred); not fully specified; ends not checked) [SEQ ID NO: 87]
0.016 | 933 | {C20 diacid-γGlu}-KCNTATCTVQRLAHQIAQFTDKDKDPVAPPTNVGSNG[Hyp]-NH2 (disulfide 2-7 (inferred); not fully specified; ends not checked) [SEQ ID NO: 92]
0.016 | > 5000 | KCNTATCATQRLANFLVHSSNNFGAIAPSTKVGSNGY [SEQ ID NO: 93]
0.015 | > 5000 | {C20 diacid-γGlu}-KCNTSTCTVQRLAHQIAQFTDKDKDPVAPPTNVGSNG[Hyp]-NH2 (disulfide 2-7 (inferred); not fully specified; ends not checked) [SEQ ID NO: 88]
